Experimental data from the DeepSol protein solubility set.

experiment: soluble on expression in E. coli; label from the status in PepcDB or PDB records

Row | Sequence | soluble on expression in E. coli
1 | MAKKTSSGRGKLPPGPTPLPVIGNILQIGIKDISKSLTNLSKVYGPVFTLYFGLKPIVVLHGYEAVKEALIDLGEEFSGRGIFPLAERANRGFGIVFSNGKKWKEIRRFSLMTLRNFGMGKRSIEDRVQEEARCLVEELRKTKASPCDPTFILGCAPCNVICSIIFHKRFDYKDQQFLNLMEKLNENIKILSSPWIQICNNFSPIIDYFPGTHNKLLKNVAFMKSYILEKVKEHQESMDMNNPQDFIDCFLMKMEKEKHNQPSEFTIESLENTAVDLFGAGTETTSTTLRYALLLLLKHPEVTAKVQEEIERVIGRNRSPCMQDRSHMPYTDAVVHEVQRYIDLLPTSLPHAVTCDIKFRNYLIPKGTTILISLTSVLHDNKEFPNPEMFDPHHFLDEGGNFKKSKYFMPFSAGKRICVGEALAGMELFLFLTSILQNFNLKSLVDPKNLDTTPVVNGFASVPPFYQLCFIPIHHHH | soluble
2 | MTLLSPGIELKETTVQSTVVNNSTGTAALAGKFQWGPAFQIKQVTNEVDLVNTFGQPTAETADYFMSAMNFLQYGNDLRVVRAVDRDTAKNSSPIAGNIEYTISTPGSNYAVGDKITVKYVSDDIETEGKITEVDADGKIKKINIPTAKIIAKAKEVGEYPTLGSNWTAEISSSSSGLAAVITLGKIITDSGILLAEIENAEAAMTAVDFQANLKKYGIPGVVALYPGELGDKIEIEIVSKADYAKGASALLPIYPGGGTRASTAKAVFGYGPQTDSQYAIIVRRNDAIVQSVVLSTKRGGKDIYDSNIYIDDFFAKGGSEYIFATAQNWPEGFSGILTLSGGLSSNAEVTAGDLMEAWDFFADRESVDVQLFIAGSCAGESLETASTVQKHVVSIGDVRQDCLVLCSPPRETVVGIPVTRAVDNLVNWRTAAGSYTDNNFNISSTYAAIDGNYKYQYDKYNDVNRWVPLAADIAGLCARTDNVSQTWMSPAGYNRGQILNVIKLAIETP | soluble
3 | MIETTLTGKTPDIGEENIKKLMTMFPEVVTEGKVDFEKLKQLLGEYVDDSNERYNFTWNGKGRALRLSQTPSLGTLRPCKEESKNWDTTQNLYIEGDNLEVLKLLQKSYYGKIKMIYIDPPYNTGKDFVYRDDFHDSLENYKRITGQVDGNGKAISTNTETSGRYHTDWLNMMYPRLRLARNLLSDDGVIFISIDDNEVDNLKKICNEIFGEDNFIANCVRKRRDSQANLSQNISPIHEYVLIYAKRFGNILNKVTPSLDMGSYKNPDNDPRGPYTTMPCTNVGGAVYSIVTPTGKTITDEWRFKKETFEKLLLDNRIVFPRNGEGKPRYKIFLSEKMAEGVLANTWLDKIASNQEGTREIKELFGGLLFNNPKPTGLLKFLLELGSSKDSIILDFFSGSATTAHAVMQLNAEDGGNRRFIMVQLPEPTDENSEAYKAGYMNISEIGKERIRRAGEKIKEEYKDKGNIENLDIGFKVFKLDTSNIRKWQPDYDNLEQSLMDYVDNFVEGRTELDVVYEIMLKYGLDLTYPVDEFTIAGKKVYSIGYGMLMICLDNEITTEVAKGILTKIKELSPESSRVVFKDNGFKTDSNKTNIKEILKSGGIEEFITI | not soluble
4 | MTETELSERLRTWLSQDNERMRALELVLQCAQVHDMPQWCIAAGFVRNLVWDKLHGFDRQPLNDIDLIYYCPLDARPERDWAIEACLRACAPELPWSVKNQARMHLKNHDNPYQSSSDAMAYWPEMETAVGVSLNPTLKTSASVIENLQIVAPFGLASLLALTLTRNPRRSLAVFEQRIIAKGWLSQYPQLVLAN | soluble
5 | MLMSVFHNWLLEIACENYFVYIKRLSANDTGATGGHQVGLYIPSGIVEKLFPSINHTRELNPSVFLTAHVSSHDCPDSEARAIYYNSAHFGKTRNEKRITRWGRGSPLQDPENTGALTLLAFKLDEQGGDCKEVNIWVCASTDEEDVIETAIGEVIPGALISGPAGQILGGLSLQQAPVNHKYILPEDWHLRFPSGSEIIQYAASHYVKNSLDPDEQLLDRRRVEYDIFLLVEELHVLDIIRKGFGSVDEFIALANSVSNRRKSRAGKSLELHLEHLFIEHGLRHFATQAITEGNKKPDFLFPSAGAYHDTEFPVENLRMLAVKTTCKDRWRQILNEADKIHQVHLFTLQEGVSLAQYREMRESGVRLVVPSSLHKKYPEAVRAELMTLGAFIAELTGLYADIP | soluble
6 | MRIGELSKETGVSERSLRHYEEKGLLPSKRLANGYRDFDESAIEKVELIQMYLQIGLNLEETARMLRCLEIEPHLYDNPCSSILTLYEDKLNEVTKQITLLSNIQANLQKHVSLLKQAKEKE | not soluble
7 | MPTYKLTYFDGRGLAEPARMLFHLGGVPFEDSRIPVDMKTGLIMNPELADVKKKAPFGKYPVLKIDDIEIAQSAAINRYLARQFGFAGKNPIEEAQADSYIDQCQEYNTSFRACMYATLQGKPEEEVQKIREEVYIPAQNKFYEIFSDILNRNKSGFLVGDSLTWADLVIADHLYSLDTMGMLTHEDAWRCETLKKFQEKIYEHPLLKGYIASRPKGAF | not soluble
8 | MEVKEVELELSSEATFLSKTSIGEITAGEKGLNPMELLLVSIGSCSGVDVYHILKKKRQEVKDIKIFLKGKRREKHPKIYEEIEIKYVAVGKVEEKALEQAVKLSTEKYCSVLAMVKPSTNLKISWEVKWEE | soluble
9 | MSLTIYVYVLDTLADWEIGYVNSELNSRRFFKKDANRVSLKTVSYSKEPIKTMGGMTIVPDCVIDDIVMSETSVLLLPGADTWNNLEHKAIIKKASELLALNATVAAICGATVALANHGLLDNRPHTSNGAGFLEMFSSSYKGQNSYINELSVWDNNLITASSAGALLWAKQIIAHLDVFESNTLESWYAYFNTGDPKHFYALMESLPDNNEGHHHHHH | soluble
10 | PTLLTARLRWTDKVTLLADPPDKAMGQRSGPWMGEAITALLRAAEREVRLITPYFVPGNDGCDLLTELAQRGVRLSIMTNALSVTDMVLVHGAYRHYRLPLLKAGAELYEFGPPPRPCGRRDLLHTKVFLIDGRQAVVGSLNFDLRSAFMNTELGVLFEEPDLFAELEAMFDRQSAPDEAHRLSLEKGRLRWSVTEEGRAALARFEPDSPPALRAVSWVVGHLPIQ | not soluble
11 | YPFWAQQTYPETPREPTGRIVCANCHLAAKPTEVEVPQSVLPDTVFKAVVKIPYDTSVQQVGADGSKVGLNVGAVLMLPEGFKIAPEDRIPEELKEEIGDVYFQPYGEDKDNIVIVGPLPGEQYQEIVFPVLSPNPANDKNIHFGKYSVHVGGNRGRGQVYPTGEKSNNNLYSAAATGTISKIAKQEGEDGSVKYLVDIKTESGEVVSDTIPAGPELIVSEGQAVTAGDALTNNPNVGGFGQLDAEIVLQDANR | soluble
12 | MSINTSGKITSATERADSADFRTIIRNKIPLMDVRAPVEFGKGAFDLSINYPLMNNDERADVGICYKQNGQEAAIKLGNALVSGQSKARRLTQWQTFARENPQGYLYCFRGGLRSQTVQRWLKESGINYPLITGGYKALRQFLLNELEQLALHPLTILAGNTGSGKTPFLAHCANSLDLEGAAGHRGSSFGSFVTPQSNQINFENKLAEQYIRGDFSLEQRLVLEDEGRLIGSVHLPESLRNAMTLAPLVVIEESLEYRLEQIYQEYIIKMTAQYQAAYGVEQGFTAFSEYLEHGLFKVRKRLGTQRYGQLKEIQSTALTQQNKGQPQYHLDWLKPLLSEYYDPMYQYQLGLKSDRVIFRGNNSECLAFLRD | not soluble
13 | MGSDKIHHHHHHMQNIIIEARVNELATRIGNPHVPFLPAEVIADAKACHDAGASIFHFHGRNEDGTPSHDPNFYLETNAGIRAQSDILIHPTLGYVANDTDAKGRFAAIEQMMQSAETAPDFAPMDTGSVNVDWWNPDEGKYDTTELIYKNSTGTLMYFADRIRHYNLTPYLVSWNVSFTRQIEQFLKMGVLDAPAYICFCMTDEIIFAGHPGTEAGLDAHTAFLPPEFETVWTVVNYKGDLFQLTEKIIRTGGHISIGLGDYAYMDGSRHMTNAEVIAKVADQARRLGREPASVAETREILNMKTPRIAA | not soluble
14 | MGHHHHHHSHMLSPNPLNSRAVEDISSSRTNPYSYAMSTEEARFLTYHMWPLTFLSPSELARAGFYYIGPGDRVACFACGGKLSNWEPKDDAMSEHRRHFPNCPFLENSLETLRFSISNLSMQTHAARMRTFMYW | not soluble
15 | MSLHGELDKIYETLALAERRGPGPVDLLLCCGDFQAVRNEADLRCMAVPPKYRHMQTFYRYYSGEKKAPVLTLFIGGNHEASNHLQELPYGGWVAPNIYYLGLAGVVKYRGVRIGGISGIFKSHDYRKGHFECPPYNSSTIRSIYHVRNIEVYKLKQLKQPIDIFLSHDWPRSIYHYGNKKQLLKTKSFFRQEVENNTLGSPAASELLEHLKPTYWFSAHLHVKFAALMQHQAKDKGQTARATKFLALDKCLPHRDFLQILEIEHDPSAPDYLEYDIEWLTILRATDDLINVTGRLWNMPENNGLHARWDYSATEEGMKEVLEKLNHDLKVPCNFSVTAACYDPSKPQTEGHHHHHH | soluble
16 | MKNIAIIGASGYTGAQLTALVHAESELSIQGLYVSENSLDKGRALADLYPVYSHIELTLSPLTEEAKANIVAEADAVVLATEHSVSLHLAAWFYSQGLAVFDLSGAYRFSDVAQYPKWYGFEHEYPEVLAKAVYGLAEWNAKDVAATKMIAVPGCYPTASLTALKPLKNLLTSAYPVINAVSGVTGAGRKAQLHTSFCEVSLTPYGVLGHRHQPEIATQLGQEVIFTPHLGNFKRGILATITVQLKPGTTTADVAAAYSVYDQAPLVTVKQNQFPKVDDVVLTPNCHLGWKFDESSGYLVVASAIDNLMKGAASQALQCIKIHFNL | not soluble
17 | MAGDPNSMPVLSIIACGMLEDELVHVLIRDCEIRQLIVVENNNISGFLRKLRSGGLVPRVISLDRVPMLLETGFSPGFKKISKMLMHFHFFRKMNEKIESGAGIKIDVVINLLRLGLHVDLELLKSEVYKNVREMAKFSDGILIFYGTCGHVLGGLERDFADLECPLFFLKDSSGEIVEDCISAALGGNDAYAGAMLECRGKGTIYLTPMWASSWKMLEKESGNRDLNNRYLKNSRYCLAAKIDSGLLYDPYFDRNVEDFALTFGMKIINMSGSSEVAEKSYLAARKAVLRKTAAALEHHHHHH | not soluble
18 | MGHHHHHHSHHRFSINGHFYNHKTSVFTPAYGSVTNVRINSTMTTPQVLKLLLNKFKIENSAEEFALYVVHTSGEKQKLKATDYPLIARILQGPCEQISKVFLMEKDQVEEVTYDVAQYIKFEMPVLKSFIQKLQEEEDREVKKLMRKYTVLRLMIRQRLEEIAETPATI | not soluble
19 | MDEEERTSSRGWMREFKYPSNLRDITEEARISLSSVAHFDELLHESSELAWRTNMSPPHRALFTFSKKTDISYVMLFLDYSRDESYCPQEVRIDLGDGTNDWWLKMYRRVDQPKGWVKIPIHDAFGNPLRVMSLQMTIMKNHEKGRDCVVRHFRVLGPFRSRYDSMNRMILGPSAVLEARPGTEPIKDAIMNHYQSMR | not soluble
20 | MKEMTGLHSLVSIENFIKQHKFSFIYISRPGCTVCHAVLPQLRIVLDQFPNIKLGHINADDVAEVAGRFSVFTVPVLLLFIDGTEFLREARFVHFEQLEQKLKRVYRLYEGE | not soluble
21 | MTRAERKRQHINHALSIGQKRETGLDDITFVHVSLPDLALEQVDISTKIGELSSSSPIFINAMTGGGGKLTYEINKSLARAASQAGIPLAVGSQMSALKDPSERLSYEIVRKENPNGLIFANLGSEATAAQAKEAVEMIGANALQIHLNVIQEIVMPEGDRSFSGALKRIEQICSRVSVPVIVKEVGFGMSKASAGKLYEAGAAAVDIGGYGGTNFSKIENLRRQRQISFFNSWGISTAASLAEIRSEFPASTMIASGGLQDALDVAKAIALGASCTGMAGHFLKALTDSGEEGLLEEIQLILEELKLIMTVLGARTIADLQKAPLVIKGETHHWLTERGVNTSSYSVR | soluble
